Data set [1] has as its system C[C@@H]1O[C@H](OP(=O)(O)O)[C@@H](O)[C@H](O)[C@@H]1O. In words: purified protein. The settings on record: co-substrate GTP, 50 mM Hepes pH 7.5, 2 mM MgCl2.
Data set [2] deals with the molecule itself. Put plainly: AUC + SEC-MALS; SV-AUC at 20 °C, about 0.5 mg/ml, 50 mM Tris pH 8.0, 150 mM NaCl, 40,000 rpm; SEC-MALS at 1 mg/ml in 50 mM Tris pH 8.0, 150 mM NaCl, ENrich SEC 650 column. A general note: In gel filtration, larger molecules generally elute earlier.
The mark [3] stands for this setting: GDP-fucose pyrophosphorylase site.

On to “FKP-FL (L-fucokinase/GDP-β-L-fucose pyrophosphorylase, full length) (Bacteroides fragilis)”, for which, in data set [1] (setting [3]), the Km (usually the concentration of substrate that gives half-maximal velocity) was 40 ± 4 µM; the kcat (in general, the maximal rate divided by the concentration of active sites) was 5.6 ± 0.3 s⁻¹; the kcat/Km – broadly, the second-order rate constant that governs catalysis at low substrate concentration – came out at 140000 M⁻¹ s⁻¹.

Consider SUMO-FKP-NTD (Bacteroides fragilis), for which, in data set [1], the Michaelis constant (Km) came out at 80 ± 8 µM.

B1: C-terminal domain of FKP (FKP-CTD), individually prepared (domain or fragment, Bacteroides fragilis 9343, UniProt Q58T34 518-949, looked up)
chain: MPELLPEDALQMSRIHNRMLRARILKLDGKDYRPEEQAAFDLLRDGLLDGISNRKSTPKLDVYSDQIVWGRSPVRIDMAGGWTDTPPYSLYSGGNVVNLAIELNGQPPLQVYVKPCKDFHIVLRSIDMGAMEIVSTFDELQDYKKIGSPFSIPKAALSLAGFAPAFSAVSYASLEEQLKDFGAGIEVTLLAAIPAGSGLGTSSILASTVLGAINDFCGLAWDKNEICQRTLVLEQLLTTGGGWQDQYGGVLQGVKLLQTEAGFAQSPLVRWLPDHLFTHPEYKDCHLLYYTGITRTAKGILAEIVSSMFLNSSLHLNLLSEMKAHALDMNEAIQRGSFVEFGRLVGKTWEQNKALDSGTNPPAVEAIIDLIKDYTLGYKLPGAGGGGYLYMVAKDPQAAVRIRKILTENAPNPRARFVEMTLSDKGFQVSRS
notes: L-fucokinase/GDP-fucose pyrophosphorylase (FKP), Bacteroides fragilis 9343, GenBank AY849806, C-terminal domain 518-949 (the abstract says 519-949); The calculated mass is printed as 49 kDa; The abstract gives 519-949, the results 518-949; source: E. coli BL21 (DE3), purified (HiTrap chelating HP, Superdex 200 gel filtration)
Turning to B1, the stoichiometry N (as a rule, the number of molecules, sites or subunits per partner or assembly) in data set [2] worked out at 2.

B2: full-length L-fucokinase/GDP-β-L-fucose pyrophosphorylase (FKP-FL) from Bacteroides fragilis 9343 (enzyme, UniProt Q58T34 1-949, looked up)
chain: MQKLLSLPSNLVQSFHELERVNRTDWFCTSDPVGKKLGSGGGTSWLLEECYNEYSDGATFGEWLEKEKRILLHAGGQSRRLPGYAPSGKILTPVPVFRWERGQHLGQNLLSLQLPLYEKIMSLAPDKLHTLIASGDVYIRSEKPLQSIPEADVVCYGLWVDPSLATHHGVFASDRKHPEQLDFMLQKPSLAELESLSKTHLFLMDIGIWLLSDRAVEILMKRSHKESSEELKYYDLYSDFGLALGTHPRIEDEEVNTLSVAILPLPGGEFYHYGTSKELISSTLSVQNKVYDQRRIMHRKVKPNPAMFVQNAVVRIPLCAENADLWIENSHIGPKWKIASRHIITGVPENDWSLAVPAGVCVDVVPMGDKGFVARPYGLDDVFKGDLRDSKTTLTGIPFGEWMSKRGLSYTDLKGRTDDLQAVSVFPMVNSVEELGLVLRWMLSEPELEEGKNIWLRSEHFSADEISAGANLKRLYAQREEFRKGNWKALAVNHEKSVFYQLDLADAAEDFVRLGLDMPELLPEDALQMSRIHNRMLRARILKLDGKDYRPEEQAAFDLLRDGLLDGISNRKSTPKLDVYSDQIVWGRSPVRIDMAGGWTDTPPYSLYSGGNVVNLAIELNGQPPLQVYVKPCKDFHIVLRSIDMGAMEIVSTFDELQDYKKIGSPFSIPKAALSLAGFAPAFSAVSYASLEEQLKDFGAGIEVTLLAAIPAGSGLGTSSILASTVLGAINDFCGLAWDKNEICQRTLVLEQLLTTGGGWQDQYGGVLQGVKLLQTEAGFAQSPLVRWLPDHLFTHPEYKDCHLLYYTGITRTAKGILAEIVSSMFLNSSLHLNLLSEMKAHALDMNEAIQRGSFVEFGRLVGKTWEQNKALDSGTNPPAVEAIIDLIKDYTLGYKLPGAGGGGYLYMVAKDPQAAVRIRKILTENAPNPRARFVEMTLSDKGFQVSRS
notes: The calculated mass is printed as 108 kDa; also called L-fucokinase/GDP-fucose pyrophosphorylase; source: E. coli BL21 (DE3), purified (HiTrap chelating HP, Superdex 200 gel filtration)
For B2, the “stoichiometry N” value in data set [2] worked out at 4.

The record behind these values is publication PMC11982464, “Structural insight into the catalytic mechanism of the bifunctional enzyme L-fucokinase/GDP-fucose pyrophosphorylase” (The Journal of Biological Chemistry, 2025).
